In paper PMC8389370, “pUL21 is a viral phosphatase adaptor that promotes herpes simplex virus replication and spread” (PLoS Pathogens, 2021):

Target: T1, StrepII-CERT (human, UniProt Q9Y5P4-2 1-598, predominantly hyperphosphorylated (CERT^P); sites not given)
T1 construct: human CERT, UniProt Q9Y5P4-2, codon-optimised synthetic gene in pcDNA-SW; also called Strep-CERT; CERT^P; source: Freestyle 293F cells, transfected, purified (StrepTrap HP, SEC); not shown: StrepII-tag, N-terminal, kept
T1 sequence (looked up): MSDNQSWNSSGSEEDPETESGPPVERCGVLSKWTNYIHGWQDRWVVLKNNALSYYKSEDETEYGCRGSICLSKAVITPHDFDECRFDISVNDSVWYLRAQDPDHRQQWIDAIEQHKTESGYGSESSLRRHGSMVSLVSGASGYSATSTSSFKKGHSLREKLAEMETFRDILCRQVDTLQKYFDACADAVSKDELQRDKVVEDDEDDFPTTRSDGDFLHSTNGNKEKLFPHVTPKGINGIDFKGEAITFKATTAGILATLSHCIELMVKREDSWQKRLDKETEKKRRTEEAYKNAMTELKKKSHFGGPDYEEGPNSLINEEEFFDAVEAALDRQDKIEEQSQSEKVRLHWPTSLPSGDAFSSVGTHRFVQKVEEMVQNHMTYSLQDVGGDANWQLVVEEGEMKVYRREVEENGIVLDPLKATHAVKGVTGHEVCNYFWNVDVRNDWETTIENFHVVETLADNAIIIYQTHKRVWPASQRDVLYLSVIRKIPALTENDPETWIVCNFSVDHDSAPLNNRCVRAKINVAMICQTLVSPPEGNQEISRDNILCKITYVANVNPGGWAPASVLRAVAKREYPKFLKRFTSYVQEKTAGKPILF
Assay: pull-down; pUL21-GST (1 μM) on glutathione magnetic beads, 5 μM purified prey, 60 min at room temperature, 20 mM Tris pH 8.5, 200 mM NaCl, 0.1% NP-40, 1 mM DTT, 1 mM EDTA; eluted with glutathione, Coomassie SDS-PAGE
Conditions: both partners purified

B1: pUL21-GST (natural protein)
chain: MELSYATTMHYRDVVFYVTTDRNRAYFVCGGCVYSVGRPCASQPGEIAKFGLVVRGTGPDDRVVANYVRSELRQRGLQDVRPIGEDEVFLDSVCLLNPNVSSELDVINTNDVEVLDECLAEYCTSLRTSPGVLISGLRVRAQDRIIELFEHPTIVNVSSHFVYTPSPYVFALAQAHLPRLPSSLEALVSGLFDGIPAPRQPLDAHNPRTDVVITGRRAPRPIAGSGAGSGGAGAKRATVSEFVQVKHIDRVGPAGVSPAPPPNNTDSSSLVPGAQDSAPPGPTLRELWWVFYAADRALEEPRADSGLTREEVRAVRGFREQAWKLFGSAGAPRAFIGAALGLSPLQKLAVYYYIIHRERRLSPFPALVRLVGRYTQRHGLYVPRPDDPVLADAINGLFRDALAAGTTAEQLLMFDLLPPKDVPVGSDVQADSTALLRFIESQRLAVPGGVISPEHVAYLGAFLSVLYAGRGRMSAATHTARLTGVTSLVLAVGDVDRLSAFDRGAAGAASRTRAAGYLDVLLTVRLARSQHGQSV
notes: HSV-1 strain KOS pUL21, UniProt F8RG07; the plasmid for the GST fusion is not described; also called Purified recombinant pUL21-GST; source: E. coli T7 Express lysY/Iq, purified (glutathione Sepharose 4B, SEC)
B1: binds.
